# Measurements from the RNAGym collection of RNA variant scans (doi:10.1093/molbev/msab373).
# B1: Azoarcus group I ribozyme (parent)
# chain: GUGCCUUGCGCCGGGAAACCACGCAAGGGAUGGUGUCAAAUUCGGCGAAACCUAAGCGCCCGCCCGGGCGUAUGGCAACGCCGAGCCAAGCUUCGGCGCCUGCGCCGAUGAAGGUGUAGAGACUAGACGGCACCCACCUAAGGCAAACGCUAUGGUGAAGGCAUAGUCCAGGGAGUGGCGAAAGUCACACAAACCGG
# Variants of: B1
# Assay: reverse-splicing fitness (ratio to wild type); higher = more active; in vitro selection; Mg2+ level not given
# Method in brief: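 An in vitro group I ribozyme library with randomized positions was T7-transcribed and gel-purified. In triplicate, 10 pmol RNA in EPPS pH 7.5 was reacted with 50 pmoles of a 30-nt RNA substrate for 1 h at 37 °C across several added MgCl2 levels (1–48 mM), then stopped with EDTA. Products were reverse transcribed from a substrate-complementary primer, PCR-amplified and sequenced (HiSeq 4000). Fitness is a variant's read proportion after selection over that before, normalised to wild type.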
row,Variant,reverse-splicing fitness
1,GUGCCUUGCGCCGGGAAACCACGCAAGGGAUGGUGUCAAAUUCGGCGAAACCUAAGCGCCCGCCCGGGCGUAUGGCAACGCCGAGCCAAGCUUCGGCGCCUGCGCCGAUGGAGGUGUAGCGACUAGACGGCACCCACCUAAGGCUAACGGUAUGGUGAAGGCAUAGUCGAGGGAGGGGCGAAAGUCACACAAACCGG [A111G A120C A145U C150G C169G U176G],0.00416
2,GUGCCUUGCGCCGGGAAACCACGCAAGGGAUGGUGUCAAAUUCGGCGAAACCUAAGCGCCCGCCCGGGCGUAUGGCAACGCCGAGCCAAGCUUCGGCGCCUGCGCCGAUGGAGGUGUAGCGACUAGACGGCACCCACCUAAGGCUAACGGUAUGGUGAAGGCAUAGUCGAGGGAGCGGCGAAAGUCACACAAACCGG [A111G A120C A145U C150G C169G U176C],0.00451
3,GUGCCUUGCGCCGGGAAACCACGCAAGGGAUGGUGUCAAAUUCGGCGAAACCUAAGCGCCCGCCCGGGCGUAUGGCAACGCCGAGCCAAGCUUCGGCGCCUGCGCCGAUGGAGGUGUAGCGACUAGACGGCACCCACCUAAGGCUAACGGUAUGGUGAAGGCAUAGUCAAGGGAGCGGCGAAAGUCACACAAACCGG [A111G A120C A145U C150G C169A U176C],0.00745
4,GUGCCUUGCGCCGGGAAACCACGCAAGGGAUGGUGUCAAAUUCGGCGAAACCUAAGCGCCCGCCCGGGCGUAUGGCAACGCCGAGCCAAGCUUCGGCGCCUGCGCCGAUGGAGGUGUAGCGACUAGACGGCACCCACCUAAGGCUAACGGUAUGGUGAAGGCAUAGUCAAGGGAGAGGCGAAAGUCACACAAACCGG [A111G A120C A145U C150G C169A U176A],0.00723
5,GUGCCUUGCGCCGGGAAACCACGCAAGGGAUGGUGUCAAAUUCGGCGAAACCUAAGCGCCCGCCCGGGCGUAUGGCAACGCCGAGCCAAGCUUCGGCGCCUGCGCCGAUGGAGGUGUAGCGACUAGACGGCACCCACCUAAGGCUAACGGUAUGGUGAAGGCAUAGUCAAGGGAGGGGCGAAAGUCACACAAACCGG [A111G A120C A145U C150G C169A U176G],0.00414
6,GUGCCUUGCGCCGGGAAACCACGCAAGGGAUGGUGUCAAAUUCGGCGAAACCUAAGCGCCCGCCCGGGCGUAUGGCAACGCCGAGCCAAGCUUCGGCGCCUGCGCCGAUGGAGGUGUAGCGACUAGACGGCACCCACCUAAGGCUAACGUUAUGGUGAAGGCAUAGUCGAGGGAGUGGCGAAAGUCACACAAACCGG [A111G A120C A145U C150U C169G],0.0111
7,GUGCCUUGCGCCGGGAAACCACGCAAGGGAUGGUGUCAAAUUCGGCGAAACCUAAGCGCCCGCCCGGGCGUAUGGCAACGCCGAGCCAAGCUUCGGCGCCUGCGCCGAUGGAGGUGUAGCGACUAGACGGCACCCACCUAAGGCUAACGUUAUGGUGAAGGCAUAGUCAAGGGAGUGGCGAAAGUCACACAAACCGG [A111G A120C A145U C150U C169A],0.013
8,GUGCCUUGCGCCGGGAAACCACGCAAGGGAUGGUGUCAAAUUCGGCGAAACCUAAGCGCCCGCCCGGGCGUAUGGCAACGCCGAGCCAAGCUUCGGCGCCUGCGCCGAUGGAGGUGUAGCGACUAGACGGCACCCACCUAAGGCUAACGGUAUGGUGAAGGCAUAGUCAAGGGAGUGGCGAAAGUCACACAAACCGG [A111G A120C A145U C150G C169A],0.00821
9,GUGCCUUGCGCCGGGAAACCACGCAAGGGAUGGUGUCAAAUUCGGCGAAACCUAAGCGCCCGCCCGGGCGUAUGGCAACGCCGAGCCAAGCUUCGGCGCCUGCGCCGAUGGAGGUGUAGCGACUAGACGGCACCCACCUAAGGCUAACGGUAUGGUGAAGGCAUAGUCUAGGGAGUGGCGAAAGUCACACAAACCGG [A111G A120C A145U C150G C169U],0.0352
10,GUGCCUUGCGCCGGGAAACCACGCAAGGGAUGGUGUCAAAUUCGGCGAAACCUAAGCGCCCGCCCGGGCGUAUGGCAACGCCGAGCCAAGCUUCGGCGCCUGCGCCGAUGGAGGUGUAGCGACUAGACGGCACCCACCUAAGGCUAACGGUAUGGUGAAGGCAUAGUCGAGGGAGUGGCGAAAGUCACACAAACCGG [A111G A120C A145U C150G C169G],0.00597
11,GUGCCUUGCGCCGGGAAACCACGCAAGGGAUGGUGUCAAAUUCGGCGAAACCUAAGCGCCCGCCCGGGCGUAUGGCAACGCCGAGCCAAGCUUCGGCGCCUGCGCCGAUGGAGGUGUAGCGACUAGACGGCACCCACCUAAGGCUAACGGUAUGGUGAAGGCAUAGUCCAGGGAGCGGCGAAAGUCACACAAACCGG [A111G A120C A145U C150G U176C],0.0545
12,GUGCCUUGCGCCGGGAAACCACGCAAGGGAUGGUGUCAAAUUCGGCGAAACCUAAGCGCCCGCCCGGGCGUAUGGCAACGCCGAGCCAAGCUUCGGCGCCUGCGCCGAUGGAGGUGUAGCGACUAGACGGCACCCACCUAAGGCUAACGGUAUGGUGAAGGCAUAGUCCAGGGAGAGGCGAAAGUCACACAAACCGG [A111G A120C A145U C150G U176A],0.0189
13,GUGCCUUGCGCCGGGAAACCACGCAAGGGAUGGUGUCAAAUUCGGCGAAACCUAAGCGCCCGCCCGGGCGUAUGGCAACGCCGAGCCAAGCUUCGGCGCCUGCGCCGAUGGAGGUGUAGCGACUAGACGGCACCCACCUAAGGCUAACGGUAUGGUGAAGGCAUAGUCCAGGGAGGGGCGAAAGUCACACAAACCGG [A111G A120C A145U C150G U176G],0.00444
14,GUGCCUUGCGCCGGGAAACCACGCAAGGGAUGGUGUCAAAUUCGGCGAAACCUAAGCGCCCGCCCGGGCGUAUGGCAACGCCGAGCCAAGCUUCGGCGCCUGCGCCGAUGGAGGUGUAGCGACUAGACGGCACCCACCUAAGGCUAACGUUAUGGUGAAGGCAUAGUCCAGGGAGUGGCGAAAGUCACACAAACCGG [A111G A120C A145U C150U],0.579
15,GUGCCUUGCGCCGGGAAACCACGCAAGGGAUGGUGUCAAAUUCGGCGAAACCUAAGCGCCCGCCCGGGCGUAUGGCAACGCCGAGCCAAGCUUCGGCGCCUGCGCCGAUGGAGGUGUAGCGACUAGACGGCACCCACCUAAGGCUAACGGUAUGGUGAAGGCAUAGUCCAGGGAGUGGCGAAAGUCACACAAACCGG [A111G A120C A145U C150G],0.12
